Results taken from paper PMC10156733, “N-Formimidoylation/-iminoacetylation modification in aminoglycosides requires FAD-dependent and ligand-protein NOS bridge dual chemistry” (Nature Communications, 2023).

Tests used:
Orf1 [1] = target: T1, Orf1 (Streptomyces luteocolor, UniProt A0A125SZC1); test: LC-MS of denatured protein; X-ray crystal structure; type: binding; settings: prosthetic group, copurified
T1 construct: full length, 491 residues; pET28a, His-tagged (Ni-NTA), E. coli BL21(DE3); tetramer with FAD in each chain; peptide AFAC281GLHLVPR
T1 sequence (A0A125SZC1 1-491): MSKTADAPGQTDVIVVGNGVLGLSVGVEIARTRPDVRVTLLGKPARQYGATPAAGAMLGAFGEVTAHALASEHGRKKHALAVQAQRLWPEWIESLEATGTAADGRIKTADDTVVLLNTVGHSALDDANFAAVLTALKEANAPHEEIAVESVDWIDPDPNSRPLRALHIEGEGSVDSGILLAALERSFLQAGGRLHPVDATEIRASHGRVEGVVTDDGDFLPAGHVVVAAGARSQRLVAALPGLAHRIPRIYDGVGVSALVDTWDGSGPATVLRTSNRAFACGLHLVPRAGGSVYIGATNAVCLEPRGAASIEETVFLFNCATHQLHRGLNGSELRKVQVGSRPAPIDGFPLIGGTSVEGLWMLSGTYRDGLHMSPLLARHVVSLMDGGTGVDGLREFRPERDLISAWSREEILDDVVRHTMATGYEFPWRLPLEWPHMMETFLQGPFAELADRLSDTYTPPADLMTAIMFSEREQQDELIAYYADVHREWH

[2] = target: T2, AAC(6’)-Ie-APH(6”)-Ia; aac(6’)-Ie-aph(2”)-Ia (Staphylococcus aureus, UniProt P0A0C1); test: in vitro N-acetylation assay; type: biochemical; settings: acetylation only to some extent
T2 construct: gene aacA-aphD; synthetic gene, recombinant

Orf1 [3] = target: T3, Orf1 (Streptomyces luteocolor, UniProt A0A125SZC1, R342A); test: isothermal titration calorimetry; type: binding
T3 construct: full length, 491 residues; pET28a, His-tagged (Ni-NTA), E. coli BL21(DE3); tetramer with FAD in each chain; peptide AFAC281GLHLVPR
Text: isothermal titration calorimetry on Orf1 | held the same ST-F binding affinity as the wild type

Orf1 [4] = target: T4, Orf1 (Streptomyces luteocolor, UniProt A0A125SZC1, E312A); test: isothermal titration calorimetry; type: binding
T4 construct: full length, 491 residues; pET28a, His-tagged (Ni-NTA), E. coli BL21(DE3); tetramer with FAD in each chain; peptide AFAC281GLHLVPR

Orf1 [5] = target: T1, Orf1; test: isothermal titration calorimetry; type: binding
Text: isothermal titration calorimetry on Orf1 | binding affinities of ST-F versus Orf1 wild-type or mutants were estimated

[6] = system: NCCCC(N)CC(=O)NC1C(N=C2NC3C(=O)NCC(O)C3N2)OC(CO)C(OC(N)=O)C1O; test: LC-MS of ST-F consumption; type: biochemical, Streptomyces luteocolor; settings: glycine + ST-F, ST-F varied 25-500 μM, 100 mM sodium phosphate pH 8, 37 °C, crystal complex with glycine
[7] = substrate: NCCCC(N)CC(=O)NC1C(N=C2NC3C(=O)NCC(O)C3N2)OC(CO)C(OC(N)=O)C1O; test: LC-MS of ST-F consumption; type: biochemical, Streptomyces luteocolor; settings: glycine + ST-F, ST-F varied 25-500 μM, 100 mM sodium phosphate pH 8, 37 °C
purified protein = substrate: NCC(=O)O; test: purified protein; type: biochemical, Streptomyces luteocolor; settings: single substrate glycine (oxidation phase), 100 mM sodium phosphate pH 8, crystal complex also shows covalent glycine imine-N-O-S adduct at C281

Cc1cc2nc3c(=O)[nH]c(=O)nc-3n(C[C@H](O)[C@H](O)[C@H](O)COP(=O)(O)OP(=O)(O)OC[C@H]3O[C@@H](n4cnc5c(N)ncnc54)[C@H](O)[C@@H]3O)c2cc1C [FAD]
LC-MS of denatured protein; X-ray crystal structure (Orf1 [1]): This yellow cofactor was determined to be flavin adenine dinucleotide (FAD)

NCC(=O)N[C@@H]1[C@H](O)[C@@H](OC(N)=O)[C@@H](CO)O[C@H]1N=C1N[C@@H]2[C@H](O)CNC(=O)[C@H]2N1 [compound 4, glycylthricin]
in vitro N-acetylation assay [2]: inactivated glycylthricin by N-acetylation to some extent in in vitro assay

NCCCC(N)CC(=O)NC1C(N=C2NC3C(=O)NCC(O)C3N2)OC(CO)C(OC(N)=O)C1O (centres unmarked) [compound 7, ST-F]
Kd (Orf1 [3]): 14.3 µM
Kd (Orf1 [4]): 55.2 µM
Kd (Orf1 [5]): 11.3 µM

Orf1 (Streptomyces luteocolor; F316A)
Km [6]: 190 µM
kcat [6]: 0.119 s⁻¹

B1: Orf1 (Streptomyces luteocolor) (protein)
chain: T1 sequence (A0A125SZC1 1-491)
notes: full length, 491 residues; pET28a, His-tagged (Ni-NTA), E. coli BL21(DE3); tetramer with FAD in each chain; peptide AFAC281GLHLVPR
Km [7]: 196 µM
kcat [7]: 0.0513 s⁻¹
Km (purified protein): 202 µM
kcat (purified protein): 0.0123 s⁻¹
